{"source": "paper doi:10.1101/2025.01.10.632437", "about": "(bioRxiv, 2025)", "test_in_all_cases": "cryo-EM structure", "key": {"cryo-EM structure [1]": {"biological_target": "the molecule itself"}, "cryo-EM structure [2]": {"biological_target": "the molecule itself", "remark": "listed apart in the source"}, "cryo-EM structure [3]": {"biological_target": "the molecule itself", "remark": "listed apart in the source"}}, "note": "Like-named read-outs stand apart in the source and are kept apart here."}
{"protein": "bovine TMEM206/PACC1 with C-terminally fused venus-YFP followed by a streptavidin binding peptide tag (natural protein) not shown", "values": [{"measurement": "binding result", "setting": "cryo-EM structure [1]", "result": "binds"}]}
{"protein": "bovine proton-activated Cl- channel TMEM206/PACC1 without vYFP (conventional purification) (natural protein) not shown", "values": [{"measurement": "binding result", "setting": "cryo-EM structure [2]", "result": "binds"}]}
{"protein": "murine TMEM16F with C-terminal vYFP and SBP-tag (natural protein, mouse) QMMTRKVLLNMELEEDDDEDGDIVLENFDQTIVCPTFGSLENQQDFRTPEFEEFNGKPDSLFFTDGQRRIDFILVYEDESKKENNKKGTNEKQKRKRQAYESNLICHGLQLEATRSVSDDKLVFVKVHAPWEVLCTYAEIMHIKLPLKPNDLKTRSPFGNLNWFTKVLRVNESVIKPEQEFFTAPFEKSRMNDFYILDRDSFFNPATRSRIVYFILSRVKYQVMNNVNKFGINRLVSSGIYKAAFPLHDCRFNYESEDISCPSERYLLYREWAHPRSIYKKQPLDLIRKYYGEKIGIYFAWLGYYTQMLLLAAVVGVACFLYGYLDQDNCTWSKEVCDPDIGGQILMCPQCDRLCPFWRLNITCESSKKLCIFDSFGTLIFAVFMGVWVTLFLEFWKRRQAELEYEWDTVELQQEEQARPEYEAQCNHVVINEITQEEERIPFTTCGKCIRVTLCASAVFFWILLIIASVIGIIVYRLSVFIVFSTTLPKNPNGTDPIQKYLTPQMATSITASIISFIIIMILNTIYEKVAIMITNFELPRTQTDYENSLTMKMFLFQFVNYYSSCFYIAFFKGKFVGYPGDPVYLLGKYRSEECDPGGCLLELTTQLTIIMGGKAIWNNIQEVLLPWVMNLIGRYKRVSGSEKITPRWEQDYHLQPMGKLGLFYEYLEMIIQFGFVTLFVASFPLAPLLALVNNILEIRVDAWKLTTQFRRMVPEKAQDIGAWQPIMQGIAILAVVTNAMIIAFTSDMIPRLVYYWSFSIPPYGDHTYYTMDGYINNTLSVFNITDFKNTDKENPYIGLGNYTLCRYRDFRNPPGHPQEYKHNIYYWHVIAAKLAFIIVMEHIIYSVKFFISYAIPDVSKITKSKIKREKYLTQKLLHESHLKDLTKNMGIIAERIGGTVDNSVRPKLE", "values": [{"measurement": "stoichiometry N", "setting": "cryo-EM structure [3]", "result": 2}]}
